According to US12480043B2, “Red-light-mediated nucleic acid anchoring-type fluorescent probe, and preparation method therefor and use thereof” (SOOCHOW UNIVERSITY, priority 2020, dated 2025):

Tests used:
[1] = TEM and particle size of probe in aqueous solution; type: physicochemical; settings: TEM
[2] = UV visible near-infrared and fluorescence spectra in aqueous solution; type: physicochemical; settings: 10 μM in ultrapure water
[3] = 10 μM
4T1 cells = experiment: Cytotoxicity of probes co-incubated with MB and cells
[4] = system: 4T1 mice breast cancer tumor
Protocol: The control group probe CR and the experimental group probe f-CR were treated with PBS to a concentration of […] 200 μL. MB (PBS, 0.1) was injected into the mouse tumor 0.5 hours in advance by intratumor injection, followed by tail vein injection of CR or f-CR.

Compound	assembly or nanostructure [1]	maximum absorption [2]	maximum emission [2]	solubility in ultrapure water [3]	toxicity without illumination (4T1 cells; 100, 50, 20, 10, 1, 0.1 μM + MB 0.1 μM, 4T1 cells, 12 hours)	cytotoxicity after illumination (4T1 cells; probe + MB 0.1 μM, 4T1 cells 12 hours, 660 nm 50 mW/cm 2 3 minutes, further cultured 48 hours)	enrichment in the tumor ([4]; 12 hours after probe injection, f-CR+MB+660 nm, tumor sections and organ homogenates)	retention time in vivo (tumor, IVIS) ([4]; MB intratumor 0.5 hours in advance, probe 100 Mm 200 μL tail vein, 660 nm 50 mW/cm^2 3 minutes after 1 hour)
CC[N+]1=C(/C=C/C=C/C=C/C=C2\N(CCCCCC(=O)NCCCCC3NC(=O)C(Cc4ccccc4)NC(=O)C(CC(=O)O)NC(=O)CNC(=O)C(CCCNC(=N)N)NC3=O)c3ccc(S(=O)(=O)O)cc3C2(C)C)C(C)(C)c2cc(S(=O)(=O)O)ccc21 (stereo not drawn) [CR]	no assembly or nanostructure was found	747 nm	789 nm	completely soluble	–	–	–	–
CC[N+]1=C(/C=C/C=C/C=C/C=C2\N(CCCCCC(=O)NC(CCCCNC(=O)CCc3ccco3)C(=O)NCCCCC3NC(=O)C(Cc4ccccc4)NC(=O)C(CC(=O)O)NC(=O)CNC(=O)C(CCCNC(=N)N)NC3=O)c3ccc(S(=O)(=O)O)cc3C2(C)C)C(C)(C)c2cc(S(=O)(=O)O)ccc21 (stereo not drawn) [f-CR]	–	–	–	completely soluble	neither CR nor f-CR showed significant toxicity	exhibited certain cytotoxicity	much higher than that of other groups	much longer than that of other groups
